Laboratory results: patent US20240392262A1, “TRANSPOSASE AND USES THEREOF” (Poseida Therapeutics, Inc., published 2024)

How the values were obtained:
Assay in all cases: cell_activity; split GFP integration
Details in all cases: tags: 3xFlag, SV40 NLS; chain copies: 2
GFP1 Left TAL-PBx = biological target: T1, GFP1 Left TAL-PBx (synthetic construct)
T1 chain: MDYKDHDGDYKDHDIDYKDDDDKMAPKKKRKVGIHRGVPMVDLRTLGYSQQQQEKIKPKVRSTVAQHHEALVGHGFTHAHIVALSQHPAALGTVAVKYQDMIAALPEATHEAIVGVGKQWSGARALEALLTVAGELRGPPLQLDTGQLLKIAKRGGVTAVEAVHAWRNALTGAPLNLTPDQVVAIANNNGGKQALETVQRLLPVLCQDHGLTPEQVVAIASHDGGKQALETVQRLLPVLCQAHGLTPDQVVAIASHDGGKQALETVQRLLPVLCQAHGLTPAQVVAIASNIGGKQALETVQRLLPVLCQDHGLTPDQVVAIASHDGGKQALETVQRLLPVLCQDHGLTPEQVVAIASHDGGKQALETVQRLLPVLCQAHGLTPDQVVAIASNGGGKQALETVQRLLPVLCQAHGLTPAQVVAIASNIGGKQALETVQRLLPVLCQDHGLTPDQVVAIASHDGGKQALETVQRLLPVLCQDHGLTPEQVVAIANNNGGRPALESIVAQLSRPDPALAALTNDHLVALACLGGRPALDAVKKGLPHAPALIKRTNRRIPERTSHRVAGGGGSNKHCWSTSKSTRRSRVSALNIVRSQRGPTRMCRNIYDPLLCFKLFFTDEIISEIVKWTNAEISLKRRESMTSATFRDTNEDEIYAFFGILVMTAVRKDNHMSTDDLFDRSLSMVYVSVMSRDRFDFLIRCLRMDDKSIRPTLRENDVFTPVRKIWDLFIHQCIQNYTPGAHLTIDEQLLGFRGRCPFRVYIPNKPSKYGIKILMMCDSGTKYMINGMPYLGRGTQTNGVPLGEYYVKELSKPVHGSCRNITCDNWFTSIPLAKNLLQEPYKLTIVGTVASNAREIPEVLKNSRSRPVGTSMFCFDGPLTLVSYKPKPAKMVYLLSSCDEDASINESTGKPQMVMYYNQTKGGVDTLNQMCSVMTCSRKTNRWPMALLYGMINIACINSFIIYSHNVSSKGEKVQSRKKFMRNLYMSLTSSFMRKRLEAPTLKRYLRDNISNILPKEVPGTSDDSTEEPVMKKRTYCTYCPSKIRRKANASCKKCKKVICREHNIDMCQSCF
Method: (§1) To determine if the optimal spacer length is consistent from one TAL-ssSPB to the next, similar reporters were constructed with TAL target sites for the GFP1 Left, GFP2 Right, GFP2 Left, and ZFM268 TAL-PBxs as described above. These constructs were tested using a narrower set of spacer lengths of 11 bp, 12 bp, 13 bp, 14 bp, 15 bp constructs for GFP1 Left (SEQ ID Nos. 345-349), GFP2 Left (SEQ ID Nos. 350-354), GFP2 Right (SEQ ID Nos. 355-359) and ZFM268 (SEQ ID NOs: 340-344).
(§2) Each reporter plasmid and the donor plasmid were cotransfected into HEK293T cells with the corresponding TAL-ssSPB expression plasmid. 120,000 HEK293T cells were plated in 24 well plates in 500 ul of DMEM medium supplemented with 10% FBS. The following day, a transfection mixture containing 50 ng of the TAL-ssSPB expression vector, 225 ng of the reporter plasmid, 225 ng of donor plasmid and 1 μl of JetPrime transfection reagent in a total volume of 50 μl of JetPrime buffer were assembled. The mixture was added to the HEK293T cells and the cells were incubated for four days at 37° C. at 5% CO2, splitting the cells 1:6 at day one. The percentage of on-target site-specific transposition positive cells for the various spacer length constructs were determined by FACS analysis and the results are shown in Table 18.

GFP2 Right TAL-PBx = biological target: T2, GFP2 Right TAL-PBx (synthetic construct)
T2 chain: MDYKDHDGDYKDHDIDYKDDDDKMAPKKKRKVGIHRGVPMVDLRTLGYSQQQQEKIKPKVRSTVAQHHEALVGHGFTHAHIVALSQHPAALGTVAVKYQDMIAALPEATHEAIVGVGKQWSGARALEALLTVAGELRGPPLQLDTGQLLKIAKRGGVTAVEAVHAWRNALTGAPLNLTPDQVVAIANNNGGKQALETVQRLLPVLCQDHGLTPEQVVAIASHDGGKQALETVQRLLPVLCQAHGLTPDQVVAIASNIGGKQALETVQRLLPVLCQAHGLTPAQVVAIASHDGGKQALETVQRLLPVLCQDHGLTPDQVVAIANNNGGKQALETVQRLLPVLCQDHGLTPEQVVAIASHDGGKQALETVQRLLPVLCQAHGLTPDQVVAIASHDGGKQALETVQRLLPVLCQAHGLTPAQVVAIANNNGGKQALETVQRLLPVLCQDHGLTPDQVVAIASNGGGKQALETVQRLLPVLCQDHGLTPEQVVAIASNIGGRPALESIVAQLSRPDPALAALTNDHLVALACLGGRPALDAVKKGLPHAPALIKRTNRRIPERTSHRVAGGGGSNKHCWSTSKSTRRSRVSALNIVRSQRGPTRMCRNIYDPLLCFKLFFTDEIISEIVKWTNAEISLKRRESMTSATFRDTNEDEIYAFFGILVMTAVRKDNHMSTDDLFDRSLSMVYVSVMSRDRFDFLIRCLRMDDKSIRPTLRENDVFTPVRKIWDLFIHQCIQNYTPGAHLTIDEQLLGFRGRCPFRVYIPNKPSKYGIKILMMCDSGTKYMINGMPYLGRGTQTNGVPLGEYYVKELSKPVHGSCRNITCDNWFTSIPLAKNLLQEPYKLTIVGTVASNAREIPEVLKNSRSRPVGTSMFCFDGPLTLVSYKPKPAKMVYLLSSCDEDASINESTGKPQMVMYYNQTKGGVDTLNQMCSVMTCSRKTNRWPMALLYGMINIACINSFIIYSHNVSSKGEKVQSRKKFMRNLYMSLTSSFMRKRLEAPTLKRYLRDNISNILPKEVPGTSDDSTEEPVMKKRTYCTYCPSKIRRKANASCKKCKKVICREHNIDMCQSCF
Method: as §1, §2

ZFM268 TAL-PBx = biological target: T3, ZFM268 TAL-PBx (synthetic construct)
T3 chain: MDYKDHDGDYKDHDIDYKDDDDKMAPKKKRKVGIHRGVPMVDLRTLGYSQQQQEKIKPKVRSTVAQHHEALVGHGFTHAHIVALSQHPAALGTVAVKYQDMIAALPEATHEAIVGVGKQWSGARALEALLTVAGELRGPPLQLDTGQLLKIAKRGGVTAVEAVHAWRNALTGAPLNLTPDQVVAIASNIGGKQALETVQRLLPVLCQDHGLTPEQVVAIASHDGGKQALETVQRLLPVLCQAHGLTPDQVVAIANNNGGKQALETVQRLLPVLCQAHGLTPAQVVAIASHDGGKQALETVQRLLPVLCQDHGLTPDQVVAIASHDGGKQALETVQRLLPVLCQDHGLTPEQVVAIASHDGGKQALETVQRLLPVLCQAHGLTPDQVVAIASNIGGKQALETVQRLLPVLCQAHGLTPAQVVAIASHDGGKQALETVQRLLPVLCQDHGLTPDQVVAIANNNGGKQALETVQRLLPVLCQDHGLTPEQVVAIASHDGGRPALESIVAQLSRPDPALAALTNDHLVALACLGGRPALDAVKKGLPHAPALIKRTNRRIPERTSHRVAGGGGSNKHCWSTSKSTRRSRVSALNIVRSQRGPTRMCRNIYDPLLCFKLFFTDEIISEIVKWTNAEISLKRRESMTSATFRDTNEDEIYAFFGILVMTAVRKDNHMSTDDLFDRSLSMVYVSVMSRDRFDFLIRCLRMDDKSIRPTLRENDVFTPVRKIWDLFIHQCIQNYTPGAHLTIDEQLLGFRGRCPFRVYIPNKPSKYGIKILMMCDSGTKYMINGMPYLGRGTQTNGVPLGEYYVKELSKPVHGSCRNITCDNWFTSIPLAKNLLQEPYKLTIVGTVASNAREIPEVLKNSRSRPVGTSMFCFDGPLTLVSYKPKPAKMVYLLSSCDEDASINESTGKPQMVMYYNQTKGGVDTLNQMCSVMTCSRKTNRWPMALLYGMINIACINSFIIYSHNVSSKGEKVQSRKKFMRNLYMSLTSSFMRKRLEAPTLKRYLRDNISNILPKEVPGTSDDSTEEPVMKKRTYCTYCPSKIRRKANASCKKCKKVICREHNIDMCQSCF
Method: as §1, §2

GFP2 Left TAL-PBx = biological target: T4, GFP2 Left TAL-PBx (synthetic construct)
T4 chain: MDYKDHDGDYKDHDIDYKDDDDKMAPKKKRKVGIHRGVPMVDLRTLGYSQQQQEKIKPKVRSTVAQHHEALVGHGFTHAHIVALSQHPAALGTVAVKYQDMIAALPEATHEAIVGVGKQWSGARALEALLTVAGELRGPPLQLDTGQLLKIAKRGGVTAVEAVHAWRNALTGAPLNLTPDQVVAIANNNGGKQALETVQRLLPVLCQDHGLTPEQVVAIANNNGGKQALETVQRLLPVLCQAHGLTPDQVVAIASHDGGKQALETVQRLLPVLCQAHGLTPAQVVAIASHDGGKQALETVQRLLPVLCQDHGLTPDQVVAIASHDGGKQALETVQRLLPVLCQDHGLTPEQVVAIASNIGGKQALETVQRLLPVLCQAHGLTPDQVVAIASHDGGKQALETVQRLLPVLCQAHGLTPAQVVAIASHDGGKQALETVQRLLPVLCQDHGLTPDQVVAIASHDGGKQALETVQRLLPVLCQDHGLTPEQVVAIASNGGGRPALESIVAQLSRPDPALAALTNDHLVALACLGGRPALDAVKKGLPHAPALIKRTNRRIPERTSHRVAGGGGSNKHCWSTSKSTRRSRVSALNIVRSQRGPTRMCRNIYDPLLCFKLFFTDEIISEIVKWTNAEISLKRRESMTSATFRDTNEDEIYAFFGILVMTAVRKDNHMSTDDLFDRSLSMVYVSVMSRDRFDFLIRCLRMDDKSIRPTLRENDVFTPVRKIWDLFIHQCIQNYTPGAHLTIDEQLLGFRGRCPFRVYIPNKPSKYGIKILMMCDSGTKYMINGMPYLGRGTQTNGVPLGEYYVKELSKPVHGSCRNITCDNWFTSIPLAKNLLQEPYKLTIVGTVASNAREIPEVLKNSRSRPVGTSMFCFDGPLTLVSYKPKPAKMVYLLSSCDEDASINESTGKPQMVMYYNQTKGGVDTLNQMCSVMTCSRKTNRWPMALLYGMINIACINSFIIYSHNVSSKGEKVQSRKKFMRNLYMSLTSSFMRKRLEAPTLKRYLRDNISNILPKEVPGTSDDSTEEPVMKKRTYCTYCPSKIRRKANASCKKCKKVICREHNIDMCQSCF
Method: as §1, §2

B1: GFP1L 13 bp spacer (dsDNA)
DNA 1: TGCCACCTACGGCAATCTCACGGCTTAACTACTGACCTGAACGTAGGTGGCA
DNA 2: TGCCACCTACGTTCAGGTCAGTAGTTAAGCCGTGAGATTGCCGTAGGTGGCA
B1 was tested, and the activity (GFP1 Left TAL-PBx) was 17 % GFP+.

B2: GFP2R 13 bp spacer (dsDNA)
DNA 1: TGCACGCCGTAGCAATCTCACGGCTTAACTACTGACCTGAATACGGCGTGCA
DNA 2: TGCACGCCGTATTCAGGTCAGTAGTTAAGCCGTGAGATTGCTACGGCGTGCA
For B2, the activity (GFP2 Right TAL-PBx) was 15.8 % GFP+.

B3: GFP1L 12 bp spacer (dsDNA)
DNA 1: TGCCACCTACGGCAATCTCCGGCTTAACTACTGACTGAACGTAGGTGGCA
DNA 2: TGCCACCTACGTTCAGTCAGTAGTTAAGCCGGAGATTGCCGTAGGTGGCA
B3 gave an activity (GFP1 Left TAL-PBx) of 13.7 % GFP+.

B4: GFP2R 12 bp spacer (dsDNA)
DNA 1: TGCACGCCGTAGCAATCTCCGGCTTAACTACTGACTGAATACGGCGTGCA
DNA 2: TGCACGCCGTATTCAGTCAGTAGTTAAGCCGGAGATTGCTACGGCGTGCA
Work on B4 yielded an activity (GFP2 Right TAL-PBx) of 16.9 % GFP+.

B5: ZFM268 TAL 12 bp spacer (dsDNA)
DNA 1: TACGCCCACGCGCAATCTCCGGCTTAACTACTGACTGAAGCGTGGGCGTA
DNA 2: TACGCCCACGCTTCAGTCAGTAGTTAAGCCGGAGATTGCGCGTGGGCGTA
Binder B5 has an activity (ZFM268 TAL-PBx) of 21.8 % GFP+.

B6: ZFM268 TAL 13 bp spacer (dsDNA)
DNA 1: TACGCCCACGCGCAATCTCACGGCTTAACTACTGACCTGAAGCGTGGGCGTA
DNA 2: TACGCCCACGCTTCAGGTCAGTAGTTAAGCCGTGAGATTGCGCGTGGGCGTA
With B6 the activity (ZFM268 TAL-PBx) was 21.2 % GFP+.

B7: GFP2L 13 bp spacer (dsDNA)
DNA 1: TGGCCCACCCTGCAATCTCACGGCTTAACTACTGACCTGAAAGGGTGGGCCA
DNA 2: TGGCCCACCCTTTCAGGTCAGTAGTTAAGCCGTGAGATTGCAGGGTGGGCCA
B7 was tested, and the activity (GFP2 Left TAL-PBx) was 23.5 % GFP+.

B8: GFP2L 12 bp spacer (dsDNA)
DNA 1: TGGCCCACCCTGCAATCTCCGGCTTAACTACTGACTGAAAGGGTGGGCCA
DNA 2: TGGCCCACCCTTTCAGTCAGTAGTTAAGCCGGAGATTGCAGGGTGGGCCA
In the case of B8, the activity (GFP2 Left TAL-PBx) is reported as 22.4 % GFP+.
